Sequences and labels used below:
B1: steroid receptor coactivator 3 (SRC3), full-length, Strep II tagged (natural protein)
chain: not shown
notes: full-length open reading frame, codon-optimised for insect cells; NR-boxes at 685-689, 738-742 and 1057-1061; no cleavage step is described; source: Sf9 insect cells (baculovirus), purified (StrepTrap XT, SEC); not shown: Strep II, N-terminal, kept
B2: progesterone receptor isoform A (PR-A), full-length, Strep II tagged (receptor, human, UniProt P06401-2 1-769, looked up)
chain: MSRSGCKVGDSSGTAAAHKVLPRGLSPARQLLLPASESPHWSGAPVKPSPQAAAVEVEEEDGSESEESAGPLLKGKPRALGGAAAGGGAAAVPPGAAAGGVALVPKEDSRFSAPRVALVEQDAPMAPGRSPLATTVMDFIHVPILPLNHALLAARTRQLLEDESYDGGAGAASAFAPPRSSPCASSTPVAVGDFPDCAYPPDAEPKDDAYPLYSDFQPPALKIKEEEEGAEASARSPRSYLVAGANPAAFPDFPLGPPPPLPPRATPSRPGEAAVTAAPASASVSSASSSGSTLECILYKAEGAPPQQGPFAPPPCKAPGASGCLLPRDGLPSTSASAAAAGAAPALYPALGLNGLPQLGYQAAVLKEGLPQVYPPYLNYLRPDSEASQSPQYSFESLPQKICLICGDEASGCHYGVLTCGSCKVFFKRAMEGQHNYLCAGRNDCIVDKIRRKNCPACRLRKCCQAGMVLGGRKFKKFNKVRVVRALDAVALPQPVGVPNESQALSQRFTFSPGQDIQLIPPLINLLMSIEPDVIYAGHDNTKPDTSSSLLTSLNQLGERQLLSVVKWSKSLPGFRNLHIDDQITLIQYSWMSLMVFGLGWRSYKHVSGQMLYFAPDLILNEQRMKESSFYSLCLTMWQIPQEFVKLQVSQEEFLCMKVLLLLNTIPLEGLRSQTQFEEMRSSYIRELIKAIGLRQKGVVSSSQRFYQLTKLLDNLHDLVKQLHLYCLNTFIQSRALSVEFPEMMSEVIAAQLPKILAGMVKPLLFHKK
notes: Progesterone receptor isoform PR-A, human; N-terminal truncation (missing aa 1-164) of full-length PR-B; no cleavage step is described and the DSF methods call the purified proteins SII-tagged; Carries the steroid R5020 (agonist) or RU486 (antagonist) according to the assay; Monomer without DNA, dimer on PRE DNA by SEC-MALS; The reporter-assay plasmids carry hPGR NM_000926.4 and NM_001202474.3; …
B3: progesterone receptor isoform B (PR-B), full-length, Strep II tagged (receptor, human, UniProt P06401 1-933, looked up)
chain: MTELKAKGPRAPHVAGGPPSPEVGSPLLCRPAAGPFPGSQTSDTLPEVSAIPISLDGLLFPRPCQGQDPSDEKTQDQQSLSDVEGAYSRAEATRGAGGSSSSPPEKDSGLLDSVLDTLLAPSGPGQSQPSPPACEVTSSWCLFGPELPEDPPAAPATQRVLSPLMSRSGCKVGDSSGTAAAHKVLPRGLSPARQLLLPASESPHWSGAPVKPSPQAAAVEVEEEDGSESEESAGPLLKGKPRALGGAAAGGGAAAVPPGAAAGGVALVPKEDSRFSAPRVALVEQDAPMAPGRSPLATTVMDFIHVPILPLNHALLAARTRQLLEDESYDGGAGAASAFAPPRSSPCASSTPVAVGDFPDCAYPPDAEPKDDAYPLYSDFQPPALKIKEEEEGAEASARSPRSYLVAGANPAAFPDFPLGPPPPLPPRATPSRPGEAAVTAAPASASVSSASSSGSTLECILYKAEGAPPQQGPFAPPPCKAPGASGCLLPRDGLPSTSASAAAAGAAPALYPALGLNGLPQLGYQAAVLKEGLPQVYPPYLNYLRPDSEASQSPQYSFESLPQKICLICGDEASGCHYGVLTCGSCKVFFKRAMEGQHNYLCAGRNDCIVDKIRRKNCPACRLRKCCQAGMVLGGRKFKKFNKVRVVRALDAVALPQPVGVPNESQALSQRFTFSPGQDIQLIPPLINLLMSIEPDVIYAGHDNTKPDTSSSLLTSLNQLGERQLLSVVKWSKSLPGFRNLHIDDQITLIQYSWMSLMVFGLGWRSYKHVSGQMLYFAPDLILNEQRMKESSFYSLCLTMWQIPQEFVKLQVSQEEFLCMKVLLLLNTIPLEGLRSQTQFEEMRSSYIRELIKAIGLRQKGVVSSSQRFYQLTKLLDNLHDLVKQLHLYCLNTFIQSRALSVEFPEMMSEVIAAQLPKILAGMVKPLLFHKK
notes: Progesterone receptor isoform PR-B, human; full-length open reading frame (residues up to 933 are named), codon-optimised for insect cells; no cleavage step is described and the DSF methods call the purified proteins SII-tagged; Carries R5020 or RU486 according to the assay; In the functional row PR-B was expressed from a VectorBuilder plasmid in 293T cells (hRluc:P2A:hPGR), not this Sf9 protein; …

The target in series [1] is T1, histone acetyltransferase p300, full-length, Strep II tagged (human, UniProt Q09472 1-2414).
T1 construct: Histone acetyltransferase p300, human; full-length open reading frame, codon-optimised for insect cells; no cleavage step is described; source: Sf9 insect cells (baculovirus), purified (StrepTrap XT, SEC); not shown: Strep II, N-terminal, kept
Kind of series: HDX-MS; differential, R5020-bound PR:SRC3 vs PR:SRC3:p300, with and without PRE DNA, sequential addition (DNA, PR, SRC3, p300); 4 C, 20 mM Hepes, 200 mM NaCl, 1 M urea, 1 mM TCEP, 5% glycerol, pD 7.9. Conditions: both partners purified.

Series [2] addresses B2. The experiment in a line: SEC-MALS; R5020-bound PR-A, SRC3 and p300 mixed with PRE DNA; Superose 6 Increase; 20 mM Hepes, 50 mM NaCl, 5% glycerol, 1 mM TCEP, with or without 1 M urea, pH 7.5. Conditions: both partners purified.
Series [3] concerns the target B1. The experiment in a line: HDX-MS; differential, R5020-bound PR vs PR:SRC3 and SRC3 vs PR:SRC3, with and without PRE DNA (2:1:1 PR:SRC3:PRE), sequential addition; 4 C, 20 mM Hepes, 200 mM NaCl, 1 M urea, 1 mM TCEP, 5% glycerol, pD 7.9. Conditions: both partners purified.
Series [4] deals with T1, histone acetyltransferase p300, …. Kind of series: cross-linking; DSSO XL-MS of R5020-bound PR:SRC3:p300, with and without PRE DNA (PR:SRC3:p300:DNA 2:1:1:1.5); PR 5 uM, 3 mM DSSO, 25 C 45 min; 20 mM Hepes pH 7.5, 200 mM NaCl, 1 M urea, 1 mM TCEP, 5% glycerol. Conditions: both partners purified.
Series [5] deals with the molecule itself. The experiment in a line: SEC-MALS; R5020-bound PR mixed with 32-mer PRE DNA; Superose 6 Increase; 20 mM Hepes, 50 mM NaCl, 5% glycerol, 1 mM TCEP, with or without 1 M urea, pH 7.5.
The target in series [6] is T1, histone acetyltransferase p300, …. The experiment in a line: cross-linking; DSSO XL-MS of two proteins (R5020-bound PR with SRC3, or PR-B with p300 without SRC3), with and without PRE DNA; PR 5 uM, 3 mM DSSO, 25 C 45 min; 20 mM Hepes pH 7.5, 200 mM NaCl, 1 M urea, 1 mM TCEP, 5% glycerol. Conditions: both partners purified.
Series [7] concerns the molecule itself. The experiment in a line: SEC-MALS; each protein alone, PR bound to agonist R5020, no DNA; Superose 6 Increase; 20 mM Hepes, 50 mM NaCl, 5% glycerol, 1 mM TCEP, with or without 1 M urea, pH 7.5; about 20-100 ug injected.

T1 sequence (Q09472 whole entry): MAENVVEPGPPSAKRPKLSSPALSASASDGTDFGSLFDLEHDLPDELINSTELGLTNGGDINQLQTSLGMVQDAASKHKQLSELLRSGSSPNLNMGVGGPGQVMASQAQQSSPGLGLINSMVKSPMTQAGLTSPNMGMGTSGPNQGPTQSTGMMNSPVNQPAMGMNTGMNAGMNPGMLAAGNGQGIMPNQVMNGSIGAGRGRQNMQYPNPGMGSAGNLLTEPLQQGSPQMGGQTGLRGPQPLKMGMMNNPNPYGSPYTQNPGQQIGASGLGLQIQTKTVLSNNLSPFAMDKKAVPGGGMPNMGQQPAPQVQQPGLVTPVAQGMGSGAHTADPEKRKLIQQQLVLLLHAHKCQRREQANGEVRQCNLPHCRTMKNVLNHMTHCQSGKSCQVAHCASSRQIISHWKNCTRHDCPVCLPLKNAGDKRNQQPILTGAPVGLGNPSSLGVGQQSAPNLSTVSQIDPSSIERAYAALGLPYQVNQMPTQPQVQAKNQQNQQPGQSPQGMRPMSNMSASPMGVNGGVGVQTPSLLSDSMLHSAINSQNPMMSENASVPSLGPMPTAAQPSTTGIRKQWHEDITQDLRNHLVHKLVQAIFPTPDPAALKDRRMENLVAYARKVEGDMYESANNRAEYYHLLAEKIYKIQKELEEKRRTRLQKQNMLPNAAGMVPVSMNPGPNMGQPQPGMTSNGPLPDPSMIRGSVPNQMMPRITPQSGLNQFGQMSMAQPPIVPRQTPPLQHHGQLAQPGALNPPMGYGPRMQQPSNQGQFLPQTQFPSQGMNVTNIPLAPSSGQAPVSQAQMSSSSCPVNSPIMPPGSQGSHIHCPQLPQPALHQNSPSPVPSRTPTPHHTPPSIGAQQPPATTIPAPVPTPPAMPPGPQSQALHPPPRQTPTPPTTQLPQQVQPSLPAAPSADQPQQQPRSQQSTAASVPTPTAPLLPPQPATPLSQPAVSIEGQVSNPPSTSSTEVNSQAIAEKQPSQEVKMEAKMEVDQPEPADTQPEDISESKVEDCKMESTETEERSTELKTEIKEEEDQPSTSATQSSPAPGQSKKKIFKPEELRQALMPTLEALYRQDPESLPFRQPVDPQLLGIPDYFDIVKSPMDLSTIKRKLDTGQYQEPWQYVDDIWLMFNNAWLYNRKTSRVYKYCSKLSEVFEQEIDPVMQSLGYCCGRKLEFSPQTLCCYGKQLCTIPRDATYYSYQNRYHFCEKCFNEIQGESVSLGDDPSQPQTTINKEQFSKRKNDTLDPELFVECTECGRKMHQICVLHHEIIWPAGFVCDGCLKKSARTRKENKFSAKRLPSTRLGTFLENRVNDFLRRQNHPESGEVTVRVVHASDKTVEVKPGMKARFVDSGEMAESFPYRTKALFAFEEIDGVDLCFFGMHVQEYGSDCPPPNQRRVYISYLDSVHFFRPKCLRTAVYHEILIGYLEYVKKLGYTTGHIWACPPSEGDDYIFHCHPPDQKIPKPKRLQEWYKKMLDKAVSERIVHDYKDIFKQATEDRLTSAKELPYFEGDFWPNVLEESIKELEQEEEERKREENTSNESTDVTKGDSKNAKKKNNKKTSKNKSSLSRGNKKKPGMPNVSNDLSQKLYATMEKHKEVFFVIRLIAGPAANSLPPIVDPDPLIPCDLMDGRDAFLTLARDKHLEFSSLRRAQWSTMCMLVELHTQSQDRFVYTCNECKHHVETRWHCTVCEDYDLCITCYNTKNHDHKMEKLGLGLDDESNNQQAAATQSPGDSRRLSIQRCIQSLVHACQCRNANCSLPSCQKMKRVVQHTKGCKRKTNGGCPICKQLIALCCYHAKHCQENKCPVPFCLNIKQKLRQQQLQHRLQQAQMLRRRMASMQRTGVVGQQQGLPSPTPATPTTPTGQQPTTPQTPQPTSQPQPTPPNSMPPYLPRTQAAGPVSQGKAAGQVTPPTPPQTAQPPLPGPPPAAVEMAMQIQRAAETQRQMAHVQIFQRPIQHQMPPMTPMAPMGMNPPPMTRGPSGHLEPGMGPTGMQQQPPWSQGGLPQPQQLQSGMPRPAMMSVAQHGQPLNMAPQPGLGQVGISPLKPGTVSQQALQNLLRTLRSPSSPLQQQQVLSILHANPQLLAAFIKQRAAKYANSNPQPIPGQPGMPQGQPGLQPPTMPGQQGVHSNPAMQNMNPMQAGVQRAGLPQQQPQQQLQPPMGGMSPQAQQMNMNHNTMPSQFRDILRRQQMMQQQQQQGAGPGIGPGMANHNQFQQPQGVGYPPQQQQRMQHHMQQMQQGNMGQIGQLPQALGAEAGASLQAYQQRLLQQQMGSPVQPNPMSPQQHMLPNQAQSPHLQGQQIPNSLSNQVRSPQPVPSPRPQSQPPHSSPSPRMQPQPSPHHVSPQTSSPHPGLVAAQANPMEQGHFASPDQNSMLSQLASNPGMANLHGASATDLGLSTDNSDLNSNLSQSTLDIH

Turning to B1, in series [1], the binding result is on record as “binds”. Also, the “stoichiometry N” value in series [2] stood at 0.5.
With B2, the binding result in series [3] and in series [4] was “binds” in each case. The “stoichiometry N” value in series [5] came to 2.
As to B3, the binding result in series [3] and in series [6] was “binds” throughout. Also, the “stoichiometry N” value in series [7] came to 2.

The record behind these values is publication PMC11601812, “Structural proteomics defines a sequential priming mechanism for the progesterone receptor” (Research Square, 2024).
